# According to US20170321196A1, “ANALYTICAL AND DIAGNOSTIC METHODS UTILIZING SHIGELLA FLEXNERI APYRASE” (priority 2014, published 2017):
# Several values for one entry are separate records, joined by “and”; a condition that tells them apart may be missing. Equal values may be shown once. Entries after “also recorded” stand apart in the source; their conditions may differ.
# B1: STA: Solanum tuberosum apyrase, commercially available potato apyrase from Sigma-Aldrich, SEQ ID NO: 9 (protein, listed as Solanum tuberosum)
# chain: MLNQNSHFIFIILAIFLVLPLSLLSKNVNAQIPLRRHLLSHESEHYAVIFDAGSTGSRVHVFRFDEKLGLLPIGNNIEYFMATEPGLSSYAEDPKAAANSLEPLLDGAEGVVPQELQSETPLELGATAGLRMLKGDAAEKILQAVRNLVKNQSTFHSKDQWVTILDGTQEGSYMWAAINYLLGNLGKDYKSTTATIDLGGGSVQMAYAISNEQFAKAPQNEDGEPYVQQKHLMSKDYNLYVHSYLNYGQLAGRAEIFKASRNESNPCALEGCDGYYSYGGVDYKVKAPKKGSSWKRCRRLTRHALKINAKCNIEECTFNGVWNGGGGDGQKNIHASSFFYDIGAQVGIVDTKFPSALAKPIQYLNAAKVACQTNVADIKSIFPKTQDRNIPYLCMDLIYEYTLLVDGFGLNPHKEITVIHDVQYKNYLVGAAWPLGCAIDLVSSTTNKIRVASS
# B2: rSFA: Recombinant Shigella flexneri apyrase with 6-His tag, amino-acid sequence SEQ ID NO: 4, expressed in E. coli BL21-A1 (protein, listed as Shigella flexneri)
# chain: DIHMKTKNFLLFCIATNMIFIPSANALKAEGFLTQQTSPDSLSILPPPPAENSVVFQADKAHYEFGRSLRDANRVRLASEDAYYENFGLAFSDAYGMDISRENTPILYQLLTQVLQDSHDYAVRNAKEYYKRVRPFVIYKDATCTPDKDEKMAITGSYPSGHASFGWAVALILAEINPQRKAEILRRGYEFGESRVICGAHWQSDVEAGRLMGASVVAVLHNTPEFTKSLSEAKKEFEELNTPTNELTPHHHHHHRTMF
# modifications: 6-His tag
# B3: SFA: Apyrase derived from Shigella flexneri, recombinant or non-recombinant; native sequence SEQ ID NO: 10 (protein, listed as Shigella flexneri)
# chain: MKTKNFLLFCIATNMIFIPSANALKAEGFLTQQTSPDSLSILPPPPAENSVVFQADKAHYEFGRSLRDANRVRLASEDAYYENFGLAFSDAYGMDISRENTPILYQLLTQVLQDSHDYAVRNAKEYYKRVRPFVIYKDATCTPDKDEKMAITGSYPSGHASFGWAVALILAEINPQRKAEILRRGYEFGESRVICGAHWQSDVEAGRLMGASVVAVLHNTPEFTKSLSEAKKEFEELNTPTNELTP
# Columns and labels:
# firefly luciferase = target: T1, firefly luciferase (Photinus pyralis, UniProt P08659); assay: Inhibitor development: effect on luciferase; format: biochemical
# T1 construct: purchased BioThema AB, Sweden ATP Kit SL
# Procedure: After checking the rSFA inhibitory activity in buffer, it was verified with urine, where 10 μl were added with 80 μl of cell lysate reagent and 10 μmol/L of ATP. […]
# rSFA = assay: Inhibitor development: inhibition of rSFA; format: biochemical, Shigella flexneri
# Procedure: After checking the rSFA inhibitory activity in buffer, it was verified with urine, where 10 μl were added with 80 μl of cell lysate reagent and 10 μmol/L of ATP. About 100 mM of MgSO4 and 1 mM of Na3VO4 were added in separate tubes and incubated for 10 min before measuring the light emission using firefly luciferase.
# [1] = HPLC analysis of nucleotide degradation: dATP; format: biochemical
# Procedure: (§1) To compare rSFA activity on nucleotides to that of STA, ATP, dATP, dTTP, dGTP and dCTP were incubated with the enzymes (same initial activity) for 5 min and 35 min and the resulting products were detected using high performance liquid chromatography (HPLC).
# (§2) The dNTP Standard preparation was prepared to contain final concentration of 0.1 mM […]. Nucleosides ATP/dATP/dCTP/dGTP/dTTP were suspended in Tris-EDTA buffer and diluted 10 times with the mobile phase (70% acetonitrile, 30% ammonium acetate pH 5.35). The above-prepared nucleosides were individually incubated with equal amounts of rSFA and STA for 35 min at pH 7.75 and 5 μl of the mixture was injected into HPLC instrument (SeQuant ZIC®-pHILIC column, Merck Millipore) at a flow rate of 0.7 mL/min using a pump (Jasco PU-2089 Plus). Peaks were detected at 254 nm by UV-2075 Plus detector and the chromatographic separation was achieved using isocratic elution. Analysis was performed using Chrompass software, where each nucleotide/nucleoside was identified by comparison with retention time of the respective standards.
# [2] = ATP degradation by apyrase in buffer, firefly luciferase bioluminescent assay; format: biochemical; settings: for time to eliminate ATP: enzymes diluted 10× in Tris-EDTA Buffer; for ATP depletion rate: No serum (Negative control)
# Procedure: (§3) Cuvettes contained 100 μL sample in a total volume of 1 mL containing ATP Reagent SL (BioThema AB, Sweden) in 0.07 mol/L Tris- EDTA Buffer and the reaction was started by injection of 10 μL 10 μmol/L ATP Standard. The initial apyrase activity was determined as described by Lundin and coworkers (Analytical Biochemistry 75, 611-620 (1976) and Methods in Enzymology vol 305, 346-370 (2000)) with some modifications. Bioluminescence was measured at every 10 s during 1 min, in the fully automatic 1251 Luminometer (LKB-Wallac, Turku, Finland). To this, 10 μl of 10 μmol/L ATP was added to determine the background ground luminescence. The temperature control was set to 25° C. and bioluminescence was measured from several cuvettes in parallel during 30 or 60 minutes and compared to residual ATP after various incubation times using rSFA and STA. This was repeated with rSFA and STA and a graph was plotted by keeping the ATP-degradation rate as internal control to determine the ATP-degradation efficiency of both of the enzyme sources.
# (§4) Light emission from the firefly-luciferase reaction was measured at 25° C. in a 1251 Luminometer (LKB-Wallac; Finland) using the ATP Kit SL (BioThema AB, Sweden) according to the manufacture's instruction (in buffer experiment) or adding concentrated luciferase (in serum/urine experiments). Initially luciferase reaction follows first-order kinetics and the ATP Reagent SL in this kit produces light intensity proportional to the ATP concentration. A plot of the natural logarithm of the light intensity versus time yields a straight line with the slope representing the rate constant of the reaction. Starting concentration of STA, A6535, A6237 (Sigma-Aldrich) was adjusted similar to rSFA. BL-reaction was started automatically upon addition of 0.2 μmol/L ATP, and the light intensity was measured every 10 second for 10 minutes (in buffer experiment) or 30 minutes (in serum and urine experiments), in the reaction volume of 0.5 mL.
# [3] = Hydrolysis of ADP and ATP/ADP mixture in urine; format: biochemical; settings: 10 μmol/L, FIG. 10
# Procedure: as §4, with “BL-reaction was started automatically upon addition of 0.2 μmol/L ATP, and the light intensity was measured every 10 second for 10 minutes (in buffer experiment) or 30 minutes (in serum and urine experiments), in the reaction volume of 0.5 mL.” left out
# [4] = HPLC analysis of nucleotide degradation: dCTP; format: biochemical
# Procedure: as §1, §2
# [5] = HPLC analysis of nucleotide degradation: dTTP; format: biochemical; settings: STA to TDP and TMP, rSFA to TMP
# Procedure: as §1, §2
# [6] = ATP elimination in urine, bioluminescent assay; format: biochemical; settings: for time to complete ATP elimination: after 4 subsequent injections of 10 μL 10 μmol/L ATP
# Procedure: as §4
# [7] = HPLC analysis of nucleotide degradation: ATP; format: biochemical; settings: for time to complete conversion of ATP: STA to ADP and AMP, rSFA to AMP
# Procedure: as §1, §2
# [8] = Elimination of extracellular ATP in serum, bioluminescent assay; format: biochemical; design: ATP depletion rate: unit not given beside the values; settings: for time after which no further ATP elimination: 10% serum, FIG. 8; for time to complete hydrolysis of ATP and its analogues: 100% crude serum, FIG. 6A
# Procedure: as §3, §4
# [9] = ATP degradation by apyrase in buffer, firefly luciferase bioluminescent assay; format: biochemical
# [10] = Buffer optimization: rSFA activity after storage, bioluminescent ATP-elimination assay; format: physicochemical; settings: stored in Buffer 3 about 10 months at +4° C.; compared with Buffer 1 and 2
# Procedure: Equal concentration of rSFA was stored in Buffer 1(20 mM Tris, 1 mM EDTA, 1% BSA, 25 mM MgSO4, pH 7.5), Buffer 2 (20 mM Tris, 25 mM MgSO4, 2.5% BSA, pH 7.5) and Buffer 3 (20 mM HEPES, 500 mM NaCl, 25 mM MgSO4, pH 7.5) for about 10 months at 4° C. Bioluminescence activity assay was performed as described below to detect the activity of rSFA after storage.
# [11] = SFA activity across pH and in EDTA; format: biochemical
# [12] = SFA stability to freeze-thaw and refrigerator storage; format: physicochemical; settings: crude form, without addition of stabilizers
# Procedure: The rSFA samples were kept at 4° C., then frozen and freeze-thawed to check its stability. An effort was made to see if the rSFA could be used to prepare a reagent for the depletion of extraneous ATP in biological samples.
# [13] = Undiluted serum (100% crude serum)
# T1 sequence (P08659 whole entry): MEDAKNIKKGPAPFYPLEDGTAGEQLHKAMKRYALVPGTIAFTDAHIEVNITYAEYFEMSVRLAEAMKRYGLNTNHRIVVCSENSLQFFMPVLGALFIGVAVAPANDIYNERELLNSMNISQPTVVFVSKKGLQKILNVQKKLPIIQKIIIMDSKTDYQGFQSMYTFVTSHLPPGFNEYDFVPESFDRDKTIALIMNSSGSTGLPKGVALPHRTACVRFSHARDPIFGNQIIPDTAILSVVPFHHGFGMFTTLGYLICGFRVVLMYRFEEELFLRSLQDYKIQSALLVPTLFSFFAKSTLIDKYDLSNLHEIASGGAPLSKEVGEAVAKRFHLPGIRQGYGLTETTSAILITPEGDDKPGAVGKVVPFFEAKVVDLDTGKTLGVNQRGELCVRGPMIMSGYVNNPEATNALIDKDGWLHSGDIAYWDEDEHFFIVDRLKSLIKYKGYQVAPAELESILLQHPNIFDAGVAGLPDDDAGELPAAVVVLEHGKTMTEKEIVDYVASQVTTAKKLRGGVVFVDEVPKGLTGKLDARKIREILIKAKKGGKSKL
molecule,measurement,setting,value
O=S(=O)([O-])[O-].[Mg+2] [MgSO4],effect on luciferase activity,firefly luciferase; 100 mM MgSO4,affected the activity of luciferase
same,effect on luciferase activity,firefly luciferase; magnesium at 50 mM,decreased the activity of luciferase
same,inhibition of rSFA activity,rSFA; 100 mM MgSO4,showed inhibitory action
same,inhibition of rSFA activity,rSFA; magnesium at 50 mM,completely inhibit
[O]=[V]([O-])([O-])[O-] [ortho-vanadate],effect on luciferase activity,firefly luciferase; 1 mM ortho-vanadate,did not affect luciferase at all
same,inhibition of rSFA activity,rSFA; 1 mM ortho-vanadate (Na3VO4),completely inhibited
B1,dATP remaining,[1]; after 35 min of incubation,more than 25%
same,Initial activity,[2],4.12 Units/mg protein
same,time to eliminate ATP,[2]; FIG. 4,> 60 min
same,ATP depletion rate,[2],3.52
same,Remaining ATP activity after 1 min,[2]; after 1 min,1.1876%
same,Remaining ATP activity after 17 min,[2]; after 17 min,0.0367%
same,amount of ATP remaining lower in STA samples compared to rSFA (factor),[2]; after one minute,~2
same,change of activity with ADP or mixture of ADP and ATP,[3],considerably decreased
same,portion of dCTP converted into CDP and CMP,[4]; after 35 min,only half
same,time to conversion of dTTP,[5],35 min
same,time after which rate of action was hindered,[6]; FIG. 9,3 min
same,time to complete ATP elimination,[6],> 20 min
same,cleavage of ATP to ADP and AMP,[7]; 5 min incubation,only partially cleaved
same,time to complete conversion of ATP,[7],35 min
same,ATP depletion rate,[8]; 10% Diluted serum,2.429
same,time after which no further ATP elimination,[8],6 min
same,time to complete hydrolysis of ATP and its analogues,[8],~45 min
same,ATP depletion rate,[8]; [13],0.5536
same,Remaining ATP activity after 91 min,[9],0.0228%
B2,time to full conversion of dATP into dAMP,[1],less than 5 min
same,activity after storage,[10],particularly good activity; also recorded: very good activity
same,rate constant of ATP elimination,[2]; FIG. 4,3.87 min⁻¹
same,time to eliminate ATP,[2]; FIG. 4,~10 min and ~15 min
same,ATP depletion rate,[2],3.98
same,time after which saturated and ineffective in further reducing the ATP concentration,"[2]; in buffer, FIG. 7",> 300 s
same,change of activity with ADP or mixture of ADP and ATP,[3],no substantial difference; also recorded: not affected
same,time to complete conversion of dCTP into CMP,[4],less than 5 min
same,time to conversion of dTTP,[5],less than 5 min
same,time to complete ATP elimination,[6],less than 3 min
same,time to complete conversion of ATP,[7],less than 5 min
same,ATP depletion rate,[8]; 10% Diluted serum,1.774
same,time after which no further ATP elimination,[8],> 30 min
same,time to complete hydrolysis of ATP and its analogues,[8],~17 min
same,ATP depletion rate,[8]; [13],1.816
B3,activity in high concentrations of EDTA,[11],remains to be active
same,pH range of very good activity,[11],7.0-7.5
same,stability,[12],tolerates freeze-thaw-cycles and storage in solution at refrigerator temperatures
